From PMC8699718, “A structurally conserved site in AUP1 binds the E2 enzyme UBE2G2 and is essential for ER-associated degradation” (PLoS Biology, 2021)

Columns and labels:
UBE2G2 [1] = test: CHX chase: UBE2G2 turnover in HT1080 AUP1 KO cells; format: cell-based, human; conditions: GFP fusion transfected with MYC-UBE2G2, HT1080 AUP1 KO, compared with GFP-SCR
Experimental: Fig 7 G2BR^AUP1 protects UBE2G2 from degradation. (A) Indicated cells were assessed for steady state levels and turnover of endogenous UBE2G2 by CHX chase. (B) Transcript levels of endogenous UBE2G2 in AUP1 KO cells compared to HT1080 as determined by qPCR. Mean and standard deviation from three independent experiments is shown. […] (D) AUP1 KO cells were transfected with plasmids encoding MYC-UBE2G2 and GFP fusions of either a scrambled G2BR (SCR), G2BR^gp78, or G2BR^AUP1, and the turnover of UBE2G2 was assessed. (E) Relative abundance of gp78 (left panel) and AUP1 (right panel) in HT1080 cells was determined by resolving indicated amounts (in pmoles) of purified GST-gp78 (aa 429 to 611) or GST-AUP1 (aa 61 to 410) fusions alongside approximately 1 × 10^4 cellular equivalents of cell lysate and immunoblotting with gp78 or AUP1 antibodies. For each antibody, the amount of immunoreactivity in the lysate was compared to a defined quantity of a GST fusion protein of gp78 or AUP1 spanning the epitope recognized by the probing antibody. […] The data underlying this figure can be found in S1 and S8 Data. aa, amino acid; AUP1, ancient ubiquitous protein 1; CHX, cycloheximide; G2BR, UBE2G2 Binding Region; KO, knockout; qPCR, quantitative polymerase chain reaction; WT, wild type. […]

purified UBE2G2 [2] = target: T1, purified UBE2G2 (UniProt P60604 1-165, ^15N-labeled for NMR); test: ITC; 30 μM G2BR peptide injected into 3 μM UBE2G2 in the cell, PBS pH 7.4, 25°C, one set of sites model; conditions: both partners purified
T1 construct: UBE2G2, purified recombinant protein used for ITC, FP, MST and NMR; also called apo-UBE2G2; ^15N-labeled UBE2G2
T1 sequence (looked up): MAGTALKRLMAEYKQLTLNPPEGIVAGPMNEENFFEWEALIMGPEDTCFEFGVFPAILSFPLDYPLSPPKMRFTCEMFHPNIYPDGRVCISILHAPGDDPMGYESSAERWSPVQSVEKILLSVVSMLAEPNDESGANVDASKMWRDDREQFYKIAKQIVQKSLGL

UBE2G2:G2BR^gp78 complex = target: T2, UBE2G2:G2BR^gp78 complex (UniProt P60604 1-165, ^15N-labeled); test: NMR titration; ^1H-^15N HSQC of ^15N-labeled UBE2G2 at 150 μM, alone or bound to G2BR peptide, titrated with gp78 RING 0 to 450 μM; chemical shift perturbations fitted; 50 mM Tris-Cl pH 7.0, 0.5 mM TCEP, 100 μM zinc sulfate; conditions: both partners purified
T2 construct: UBE2G2, as m15; N-terminal Trp residue added for peptide quantification, as m17; gp78 G2BR, residues 574-600, as m17; Complex formed before titration with the gp78 RING; also called G2BR^gp78:UBE2G2
T2 sequence 1: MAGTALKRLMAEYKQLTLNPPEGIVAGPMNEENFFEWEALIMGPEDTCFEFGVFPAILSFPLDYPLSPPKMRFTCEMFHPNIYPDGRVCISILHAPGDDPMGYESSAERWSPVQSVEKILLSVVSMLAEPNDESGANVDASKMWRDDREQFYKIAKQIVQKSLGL
T2 sequence 2: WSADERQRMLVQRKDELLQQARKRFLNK

purified UBE2G2 [3] = target: T1, purified UBE2G2; test: as above; conditions: both partners purified
UBE2G2:G2BR^AUP1 complex = target: T3, UBE2G2:G2BR^AUP1 complex (UniProt P60604 1-165, ^15N-labeled); test: as above; conditions: both partners purified
T3 construct: UBE2G2, as m15; AUP1 G2BR, residues 378-404, as m16; Complex formed before titration with the gp78 RING; also called G2BR^AUP1:UBE2G2
T3 sequence 1: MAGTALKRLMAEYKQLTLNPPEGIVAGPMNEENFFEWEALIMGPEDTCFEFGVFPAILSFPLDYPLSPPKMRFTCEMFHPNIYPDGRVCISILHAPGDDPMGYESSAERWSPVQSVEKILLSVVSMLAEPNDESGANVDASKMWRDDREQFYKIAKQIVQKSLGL
T3 sequence 2: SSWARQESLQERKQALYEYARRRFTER

UBE2J1/UBC6e = test: GST pulldown of in vitro translated 35S-UBE2J1; format: binding; conditions: GST-AUP1 aa 292 to 410, overnight 4°C, pH 7.4
Experimental: (§1) Fig 3 The AUP1–UBE2G2 interaction is required for ERAD. (A) Equimolar amounts of GST-AUP1 (aa 292 to 410) or GST were immobilized on glutathione beads and binding to the indicated in vitro translated ^35S-labeled E2s was assessed. Left panel is 5% of input used for binding. E2s are referred to by their unique alpha-numeric designation (e.g., UBE2G1 and UBE2J1). (B) HT1080 or UBE2G2 KO cells were transfected with INSIG-1-MYC and degradation assessed by CHX chase. […] (D) Cells were transfected with NHK-MYC and HA-ubiquitin and ubiquitination of NHK assessed following proteasome inhibition and IP (right panel). Left panel is 10% of total cell lysate used for IP, indicating no discernable change in total ubiquitination. (E) Levels of endogenous HRD1 were monitored by CHX chase in the indicated cell types. (F) Ubiquitination of endogenous HRD1 was assessed following IP with HRD1 antiserum. Arrow in upper panel indicates migration of unmodified HRD1. Control immunoprecipitates using rabbit serum are shown for comparison. […]
(§2) In vitro translated ^35S methionine-labeled E2s were generated using the E. coli T7-S30 Extract System (Promega) and excess ^35S methionine was removed by desalting twice with Zeba Spin Desalting Columns (Thermo Scientific). GST fusion proteins were quantified by Coomassie blue staining. […] Binding was quantified using ImageQuant Software.

UBE2D2/UBCH5B = test: GST pulldown of in vitro translated 35S-UBE2D2; format: binding; conditions: GST-AUP1 aa 292 to 410, overnight 4°C, pH 7.4
Experimental: as §1, §2

UBE2D3/UBCH5C = test: GST pulldown of in vitro translated 35S-UBE2D3; format: binding; conditions: GST-AUP1 aa 292 to 410, overnight 4°C, pH 7.4
Experimental: as §1, §2

UBE2G2 [4] = target: T4, UBE2G2 (Homo sapiens, UniProt P60604); test: GST pulldown of in vitro translated 35S-UBE2G2; format: binding; conditions: GST-AUP1 aa 292 to 410 on glutathione beads, ~3 pmol GST fusion, ~0.2 pmol E2, overnight 4°C, pH 7.4
T4 construct: made in house
T4 sequence (P60604 1-165): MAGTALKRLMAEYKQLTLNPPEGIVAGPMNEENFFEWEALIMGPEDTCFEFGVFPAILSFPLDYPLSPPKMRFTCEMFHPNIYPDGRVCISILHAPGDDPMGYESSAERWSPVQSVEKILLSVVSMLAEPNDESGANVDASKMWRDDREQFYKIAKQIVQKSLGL
Experimental: Fig 3 The AUP1–UBE2G2 interaction is required for ERAD. (A) Equimolar amounts of GST-AUP1 (aa 292 to 410) or GST were immobilized on glutathione beads and binding to the indicated in vitro translated ^35S-labeled E2s was assessed. Left panel is 5% of input used for binding. E2s are referred to by their unique alpha-numeric designation (e.g., UBE2G1 and UBE2J1). (B) HT1080 or UBE2G2 KO cells were transfected with INSIG-1-MYC and degradation assessed by CHX chase. […] (D) Cells were transfected with NHK-MYC and HA-ubiquitin and ubiquitination of NHK assessed following proteasome inhibition and IP (right panel). Left panel is 10% of total cell lysate used for IP, indicating no discernable change in total ubiquitination. (E) Levels of endogenous HRD1 were monitored by CHX chase in the indicated cell types. (F) Ubiquitination of endogenous HRD1 was assessed following IP with HRD1 antiserum. Arrow in upper panel indicates migration of unmodified HRD1. Control immunoprecipitates using rabbit serum are shown for comparison. The data underlying this figure can be found in S1 Data. aa, amino acid; AUP1, ancient ubiquitous protein 1; CHX, cycloheximide; ERAD, endoplasmic reticulum–associated degradation; IP, immunoprecipitation; KO, knockout; WT, wild type.
Fig 6 Disruption of UBE2G2:G2BR^AUP1 interaction abrogates AUP1 function in cells. (A) GST or indicated GST-AUP1 fusions (aa 292 to 410, expression shown in Coomassie-stained gel) were immobilized on glutathione beads and binding to ^35S-UBE2G2 was assessed as in Fig 3A. Mutations include 2A (R382A/Q383A), 2E (R382E/Q383E), and 5E (R382E/Q383E/K390E/R398E/R400E). (B) AUP1 KO cells were transfected with NHK-HA and forms of full-length AUP1-FLAG with the indicated point mutations from (A) and NHK degradation assessed by CHX chase. (C) Binding assay performed as in (A) with AUP1 mutants predicted to disrupt hydrophobic interactions with UBE2G2. (D) Cellular assay performed as in (B) with AUP1-FLAG mutants that disrupt interactions with UBE2G2 in vitro in (C). The data underlying this figure can be found in S1 Data. aa, amino acid; AUP1, ancient ubiquitous protein 1; CHX, cycloheximide; G2BR, UBE2G2 Binding Region; KO, knockout; WT, wild type.
In vitro translated ^35S methionine-labeled E2s were generated using the E. coli T7-S30 Extract System (Promega) and excess ^35S methionine was removed by desalting twice with Zeba Spin Desalting Columns (Thermo Scientific). GST fusion proteins were quantified by Coomassie blue staining. Moreover, 0.1 μg of GST fusion protein (approximately 3 pmol) was prebound to GS 4B (GE Healthcare) and then incubated with approximately 10^5 cpm of ^35S methionine-labeled E2 (approximately 0.2 pmol) in 200 μl Binding Buffer (25 mM Tris-HCl, pH 7.4, 50 mM NaCl, 5 mM DTT, 0.5% IGEPAL CA-630) overnight at 4°C. Beads were extensively washed in Binding Buffer, resolved on Bis/Tris polyacrylamide gels under reducing conditions, dried and visualized on a Typhoon FLA 7000 (GE Healthcare). Binding was quantified using ImageQuant Software.

UBE2G1 = test: GST pulldown of in vitro translated 35S-UBE2G1; format: binding; conditions: GST-AUP1 aa 292 to 410, overnight 4°C, pH 7.4
Experimental: as §1, §2

Molecule: GFP-G2BR^gp78: GFP fusion of gp78 aa 574 to 600
- UBE2G2 degradation and steady state level (UBE2G2 [1]): protected UBE2G2 from degradation and increased the steady state level of this E2

B1: G2BR^AUP1 peptide (aa 378 to 404) (peptide)
peptide: SSWARQESLQERKQALYEYARRRFTER
notes: also called AUP1 G2BR; source: synthetic peptide (GenScript)
- Kd (purified UBE2G2 [2]): 0.0031 µM

B2: gp78 RING domain (domain or fragment, UniProt Q9UKV5 313-393, looked up)
chain: KNYLRVVGNMEARFAVATPEELAVNNDDCAICWDSMQAARKLPCGHLFHNSCLRSWLEQDTSCPTCRMSLNIADNNRVREE
notes: gp78 (aka AMFR or RNF45), RING domain; the limits 313-393 are those of the only gp78-RING construct that the methods name; also called gp78-RING construct (aa 313 to 393)
- Kd (UBE2G2:G2BR^gp78 complex): 20.3 µM
- Kd (purified UBE2G2 [3]): 207 ± 6.4 µM
- Kd (UBE2G2:G2BR^AUP1 complex): 22.5 µM

B3: GST fusion of AUP1: GST fusion of AUP1 that includes the G2BR (protein)
chain: SPDVQLATLAQRVKEVLPHVPLGVIQRDLAKTGCVDLTITNLLEGAVAFMPEDITKGTQSLPTASASKFPSSGPVTPQPTALTFAKSSWARQESLQERKQALYEYARRRFTERRAQEAD
modifications: left off: GST, end not stated, kept
notes: GST fusion of AUP1 that includes the G2BR
- binding to UBE2J1 (UBE2J1/UBC6e): failed to show detectable binding
- binding to UBE2D2 (UBE2D2/UBCH5B): no discernable binding
- binding to UBE2D3 (UBE2D3/UBCH5C): no discernable binding
- binding to UBE2G2 (UBE2G2 [4]): bound UBE2G2
- binding to UBE2G1 (UBE2G1): not UBE2G1
